Measured values: US7037666B2, “Methods for identifying modulators of the interaction between lap (latency associated peptide) and intergrin αvβ3 and medical use thereof” (SmithKline Beecham Corporation, priority 2000, dated 2006)
Ends that are not written are not given here.

What was measured:
Type in all cases: cell-based
αvβ3 integrin [1] = biological target: T1, αvβ3 integrin (Homo sapiens, UniProt P05106+P06756); assay: Adhesion of K562-αvβ3 cells to GST-LAPβ1 (amino acids 242–252) coated wells; conditions: matrix titration or 0.5 μg coated, 2 mM MgCl2
T1 construct: expressed in transfected cells; host or cells: K562
Description: All proteins were coated onto Maxisorp 96-well plates (Nunclon) overnight at 4° C. Each protein was diluted in PBS at the concentrations indicated, and a total volume of 100 ul added per well. Plates were washed twice in PBS then blocked with 3% BSA/PBS for 1 hour at 37° C., and finally washed twice in PBS. Cells were pelleted and washed once in HBSS (Sigma) then spread in HBSS, 25 mM HEPES pH 7.5 at the desired cell concentration (K562-WT, K562-αvβ6, HL60 at 6×10^6 cells/ml, K562-αvβ5, K562-αvβ3 at 4×10^6 cells/ml, 100 ul per well), in the presence of either 2 mM MgCl2 or 0.5 mM MnCl2 as indicated in the figure legends. […] For antibody inhibition cells were pre-incubated with the antibody (10 μg/ml) on ice for 5 minutes. Cells were then allowed to attach for 35 minutes at 37° C., washed twice with PBS, once in ethanol, and fixed in ethanol for 20 minutes at room temperature. For quantitation cells were visualised by staining with 0.1% crystal violet (Sigma) for 10 minutes then lysed in 0.5% Triton X-100 (Sigma) and read optically at 570 nm in a Wallac Victor plate reader.

K562-WT cells = assay: Adhesion of K562-WT cells to LAP-β1 coated wells; conditions: coated at 10 μg/ml, 0.5 mM MnCl2
Description: (§1) Cells were allowed to attach to wells coated with LAP-β1 at 10 μg/ml. Cells were incubated for 35 minutes at 37° C. in HBSS supplemented with 25 mM HEPES pH 7.5, and either 0.5 mM MnCl2 (K562-WT, HL60, K562-αvβ6) or 2 mM MgCl2 (K562-αvβ3, K562-αvβ5). Each bar represents the mean±SD of duplicated points.
(§2) K562-WT (wild-type), K562-αvβ6, K562-αvβ5, K562-αvβ3, and HL60 cells were maintained in 1:1 RPMI 1640, Hepes modification (Gibco): Dulbecco's Minimum Essential Medium (DMEM), Hepes modification (Sigma) supplemented with L-glutamine (Gibco) and 10% fetal calf serum (FCS). In addition K562-αvβ3, K562-αvβ5, and K562-αvβ6 cells were supplemented with geneticin (G418, Gibco) at 1 mg/ml. All transfected cells were generated by transfecting K562 cells with pCDNA-3 constructs containing individual integrin cDNAs, using lipofectamine plus (Gibco BRL).
(§3) All proteins were coated onto Maxisorp 96-well plates (Nunclon) overnight at 4° C. Each protein was diluted in PBS at the concentrations indicated, and a total volume of 100 ul added per well. Plates were washed twice in PBS then blocked with 3% BSA/PBS for 1 hour at 37° C., and finally washed twice in PBS. […] For quantitation cells were visualised by staining with 0.1% crystal violet (Sigma) for 10 minutes then lysed in 0.5% Triton X-100 (Sigma) and read optically at 570 nm in a Wallac Victor plate reader.

HL60 cells = assay: Adhesion of HL60 cells to LAP-β1 coated wells; conditions: coated at 10 μg/ml, 0.5 mM MnCl2
Description: as §1, §2, §3

αvβ6 integrin = biological target: T2, αvβ6 integrin (Homo sapiens, UniProt P06756+P18564); assay: Adhesion of K562-αvβ6 cells to LAP-β1 coated wells; conditions: coated at 10 μg/ml, 0.5 mM MnCl2
T2 construct: expressed in transfected cells; host or cells: K562
Description: as §1
Cells were allowed to attach to wells coated with LAP-β1 at 10 μg/ml. Cells were incubated for 5 minutes on ice, then for 35 minutes at 37° C., in the presence of antibodies at 10 μg/ml as indicated. The buffer used was HBSS supplemented with 25 mM HEPES pH 7.5, and 2 mM MgCl2. Each bar represents the mean±SD of duplicated samples.
as §2, with “All transfected cells were generated by transfecting K562 cells with pCDNA-3 constructs containing individual integrin cDNAs, using lipofectamine plus (Gibco BRL).” left out
All proteins were coated onto Maxisorp 96-well plates (Nunclon) overnight at 4° C. […] For quantitation cells were visualised by staining with 0.1% crystal violet (Sigma) for 10 minutes then lysed in 0.5% Triton X-100 (Sigma) and read optically at 570 nm in a Wallac Victor plate reader.

αvβ5 integrin = biological target: T3, αvβ5 integrin (Homo sapiens, UniProt P06756+P18084); assay: Adhesion of K562-αvβ5 cells to LAP-β1 coated wells; conditions: coated at 10 μg/ml, 2 mM MgCl2
T3 construct: expressed in transfected cells; host or cells: K562
Description: as §1, §2, §3

αvβ3 integrin [2] = biological target: T1, αvβ3 integrin; assay: Adhesion of K562-αvβ3 cells to LAP-β1 coated wells; conditions: coated at 10 μg/ml, 2 mM MgCl2
Description: Cells were allowed to attach to wells coated with quantities of LAP-β1 indicated. […] The buffer used was HBSS supplemented with 25 mM HEPES pH 7.5, and 2 mM MgCl2. Each data point represents the mean±SD of duplicated samples.
The buffer used was HBSS supplemented with 25 mM HEPES pH 7.5, and 2 mM MgCl2. Adhesion to each ligand in the absence of compound was taken as a 100% binding value, with adhesion to BSA alone as a 0% binding value. The 100% binding values corresponded to the following absorbances at 570 nm: Fibrinogen=0.8, Vitronectin=0.9, LAP-β1=0.9. Each data point represents the mean±SD of duplicated samples. […]

T1 sequence (P06756 31-889 limits assumed): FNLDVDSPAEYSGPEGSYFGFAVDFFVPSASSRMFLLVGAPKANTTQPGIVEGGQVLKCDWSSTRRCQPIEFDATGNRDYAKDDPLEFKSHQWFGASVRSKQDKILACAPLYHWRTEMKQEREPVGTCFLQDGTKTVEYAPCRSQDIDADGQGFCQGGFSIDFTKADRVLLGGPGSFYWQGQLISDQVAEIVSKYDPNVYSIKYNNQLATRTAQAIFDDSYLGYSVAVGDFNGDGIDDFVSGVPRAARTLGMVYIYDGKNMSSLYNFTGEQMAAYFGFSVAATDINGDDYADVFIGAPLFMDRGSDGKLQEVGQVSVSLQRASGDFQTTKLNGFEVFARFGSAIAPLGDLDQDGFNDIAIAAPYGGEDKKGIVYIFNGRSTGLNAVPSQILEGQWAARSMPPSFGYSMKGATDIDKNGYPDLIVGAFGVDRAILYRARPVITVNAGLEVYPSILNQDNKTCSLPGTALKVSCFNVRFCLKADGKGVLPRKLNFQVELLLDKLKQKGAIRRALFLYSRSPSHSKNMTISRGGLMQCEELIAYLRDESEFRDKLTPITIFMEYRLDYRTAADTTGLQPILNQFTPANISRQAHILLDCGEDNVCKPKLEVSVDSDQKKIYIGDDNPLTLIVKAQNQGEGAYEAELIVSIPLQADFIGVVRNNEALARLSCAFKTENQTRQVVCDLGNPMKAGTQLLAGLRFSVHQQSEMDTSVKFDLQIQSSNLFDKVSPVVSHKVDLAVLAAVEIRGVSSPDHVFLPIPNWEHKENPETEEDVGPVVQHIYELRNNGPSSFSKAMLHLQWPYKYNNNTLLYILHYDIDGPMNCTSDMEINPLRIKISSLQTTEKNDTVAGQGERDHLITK
T1 sequence (P06756 891-1048 partner limits assumed): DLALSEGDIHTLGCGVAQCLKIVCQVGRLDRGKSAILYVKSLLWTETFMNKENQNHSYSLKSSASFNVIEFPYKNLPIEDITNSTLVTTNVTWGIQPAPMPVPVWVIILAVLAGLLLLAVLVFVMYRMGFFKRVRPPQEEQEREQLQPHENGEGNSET
T1 sequence (P05106 27-788): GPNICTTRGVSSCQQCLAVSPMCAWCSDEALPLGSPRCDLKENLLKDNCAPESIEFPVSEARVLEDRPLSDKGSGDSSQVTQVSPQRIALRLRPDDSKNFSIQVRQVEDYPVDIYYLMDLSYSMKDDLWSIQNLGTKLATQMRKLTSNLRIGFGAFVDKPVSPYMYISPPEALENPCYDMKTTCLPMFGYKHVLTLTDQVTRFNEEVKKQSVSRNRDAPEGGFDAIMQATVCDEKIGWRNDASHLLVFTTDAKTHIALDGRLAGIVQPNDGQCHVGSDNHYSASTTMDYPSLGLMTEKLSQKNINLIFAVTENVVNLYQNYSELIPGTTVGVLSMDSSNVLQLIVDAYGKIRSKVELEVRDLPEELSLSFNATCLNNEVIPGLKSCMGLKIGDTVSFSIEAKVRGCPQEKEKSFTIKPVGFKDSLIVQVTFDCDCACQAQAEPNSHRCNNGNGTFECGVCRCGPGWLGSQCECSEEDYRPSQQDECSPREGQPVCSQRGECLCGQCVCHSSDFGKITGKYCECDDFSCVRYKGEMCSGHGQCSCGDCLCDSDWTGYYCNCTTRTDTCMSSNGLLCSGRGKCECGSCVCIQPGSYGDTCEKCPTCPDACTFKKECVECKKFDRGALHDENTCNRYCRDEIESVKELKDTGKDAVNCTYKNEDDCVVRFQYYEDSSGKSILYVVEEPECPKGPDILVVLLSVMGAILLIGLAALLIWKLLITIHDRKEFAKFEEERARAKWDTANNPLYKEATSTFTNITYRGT
T2 sequence (P06756 31-889 limits assumed): as the sequence (P06756 31-889 limits assumed) above
T2 sequence (P06756 891-1048 partner limits assumed): as the sequence (P06756 891-1048 partner limits assumed) above
T2 sequence (P18564 22-788): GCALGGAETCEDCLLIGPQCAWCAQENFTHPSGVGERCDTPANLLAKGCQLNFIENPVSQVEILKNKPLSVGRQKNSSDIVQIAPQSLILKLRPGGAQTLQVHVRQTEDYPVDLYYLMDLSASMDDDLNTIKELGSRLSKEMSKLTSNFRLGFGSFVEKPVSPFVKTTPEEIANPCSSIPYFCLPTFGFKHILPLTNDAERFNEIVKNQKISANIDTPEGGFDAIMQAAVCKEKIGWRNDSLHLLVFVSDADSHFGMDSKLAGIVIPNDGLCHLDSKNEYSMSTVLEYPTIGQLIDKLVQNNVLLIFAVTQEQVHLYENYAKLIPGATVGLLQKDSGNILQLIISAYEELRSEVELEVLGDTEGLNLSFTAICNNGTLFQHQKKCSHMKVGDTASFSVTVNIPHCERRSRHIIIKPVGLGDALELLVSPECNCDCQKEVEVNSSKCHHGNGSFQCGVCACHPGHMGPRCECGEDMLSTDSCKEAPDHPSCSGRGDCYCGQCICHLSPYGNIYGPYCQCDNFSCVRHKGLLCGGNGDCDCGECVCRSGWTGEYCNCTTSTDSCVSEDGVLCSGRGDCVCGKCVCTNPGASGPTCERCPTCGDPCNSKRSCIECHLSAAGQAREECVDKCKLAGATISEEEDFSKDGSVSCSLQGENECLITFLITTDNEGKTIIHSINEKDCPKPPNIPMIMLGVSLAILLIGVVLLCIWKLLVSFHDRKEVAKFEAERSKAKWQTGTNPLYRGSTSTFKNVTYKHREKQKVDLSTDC
T3 sequence (P06756 31-889 limits assumed): as the sequence (P06756 31-889 limits assumed) above
T3 sequence (P06756 891-1048 partner limits assumed): as the sequence (P06756 891-1048 partner limits assumed) above
T3 sequence (P18084 24-799): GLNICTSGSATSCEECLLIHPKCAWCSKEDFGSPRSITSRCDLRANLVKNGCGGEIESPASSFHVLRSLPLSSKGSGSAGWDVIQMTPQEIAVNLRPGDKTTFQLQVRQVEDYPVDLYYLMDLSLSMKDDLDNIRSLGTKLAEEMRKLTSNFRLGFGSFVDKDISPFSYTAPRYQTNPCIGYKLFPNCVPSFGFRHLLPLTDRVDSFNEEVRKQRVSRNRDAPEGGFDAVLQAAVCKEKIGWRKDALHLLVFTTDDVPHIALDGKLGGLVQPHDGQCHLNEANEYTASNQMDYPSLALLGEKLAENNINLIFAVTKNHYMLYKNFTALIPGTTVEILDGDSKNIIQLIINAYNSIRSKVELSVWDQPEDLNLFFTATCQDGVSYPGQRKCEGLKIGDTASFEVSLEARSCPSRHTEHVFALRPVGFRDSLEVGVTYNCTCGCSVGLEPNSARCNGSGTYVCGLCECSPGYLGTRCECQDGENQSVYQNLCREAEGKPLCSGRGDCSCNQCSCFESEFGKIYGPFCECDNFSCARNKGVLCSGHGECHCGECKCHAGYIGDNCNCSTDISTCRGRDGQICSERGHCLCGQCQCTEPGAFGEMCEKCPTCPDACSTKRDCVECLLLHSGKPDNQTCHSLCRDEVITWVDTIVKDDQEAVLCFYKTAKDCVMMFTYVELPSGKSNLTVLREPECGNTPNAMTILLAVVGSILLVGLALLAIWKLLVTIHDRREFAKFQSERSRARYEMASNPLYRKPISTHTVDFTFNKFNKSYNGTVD

| Substance | Ability to support adhesion of K562-αvβ3 cells (αvβ3 integrin [1]) | Adhesion of K562-WT cells to the coated protein (K562-WT cells) | Adhesion of HL60 cells to the coated protein (HL60 cells) | Adhesion of K562-αvβ6 cells to the coated protein (αvβ6 integrin) | Adhesion of K562-αvβ5 cells to the coated protein (αvβ5 integrin) | Adhesion of K562-αvβ3 cells to the coated protein (αvβ3 integrin [2]) |
| --- | --- | --- | --- | --- | --- | --- |
| GST-LAPβ1 (aa242–252): peptide fragment of LAPβ1 (amino acids 242–252, GRRGDLATIHG) containing the RGD motif, expressed as a GST fusion protein in E. coli ({GST}-GRRGDLATIHG; UniProt P01137 242-252, looked up, fragment) | supported adhesion of K562-αvβ3 cells similarly to intact LAPβ1 | – | – | – | – | – |
| LAP-β1: latency associated peptide-β1 of TGF-β1, amino acids 30 to 278 of SEQ ID NO: 1, obtained from Sigma | – | bound slightly | failed to bind | adhered | bound slightly | interacted strongly |
